For this assay, the target named is αvβ3 integrin expressed on blood vessels forming in the tumor. Briefly: cell-based or functional assay.

Where no end group is shown, it is not given here.

B1: phage expressing the RGD-containing peptide CDCRGDCFC (SEQ ID NO: 1) (peptide)
chain: CDCRGDCFC
modifications: not fully specified (bridges); cysteine pairing not given here; also: peptide displayed on filamentous phage (fuse5), up to five copies
For the molecule B1, the “phage concentrated in the breast tumor after iv injection (in vivo homing), RGD phage against unselected phage” value worked out at 80 fold.

The values are drawn from patent EP0927045B1 (The Burnham Institute, dated 1998).
